Assay [1] concerns the target G-CSF-R (Homo sapiens (Human)) (UniProt Q99062). Kind of assay: potency ELISA, plate coated with G-CSFR, HRP detection, parallel line analysis; 120 mg/mL formulation, 12 months at 25 C.
Assay [2] has the same target. Put plainly: potency ELISA, plate coated with G-CSFR, HRP detection, parallel line analysis; 120 mg/mL formulation, 9 months at 5 C.
Assay [3] shares this target. Kind of assay: potency ELISA, plate coated with G-CSFR, HRP detection, parallel line analysis; 120 mg/mL formulation, 6 months at 5 C.
The target is the same in assay [4]. Put plainly: potency ELISA, plate coated with G-CSFR, HRP detection, parallel line analysis; 120 mg/mL formulation, 3 months at 25 C.
Assay [5] shares this target. Kind of assay: potency ELISA, plate coated with G-CSFR, HRP detection, parallel line analysis; 120 mg/mL formulation, 6 months at 25 C.
For assay [6] the target is unchanged. Put plainly: potency ELISA, plate coated with G-CSFR, HRP detection, parallel line analysis; 120 mg/mL formulation, 12 months at 5 C.
The target is the same in assay [7]. Kind of assay: potency ELISA, plate coated with G-CSFR, HRP detection, parallel line analysis; 120 mg/mL formulation, 0 months at 5 C.
Assay [8] has the same target. Put plainly: potency ELISA, plate coated with G-CSFR, HRP detection, parallel line analysis; 120 mg/mL formulation, 24 months at 5 C.
Assay [9] shares this target. Put plainly: potency ELISA, plate coated with G-CSFR, HRP detection, parallel line analysis; 120 mg/mL formulation, 0 months at 25 C.
The target is the same in assay [10]. Put plainly: potency ELISA, plate coated with G-CSFR, HRP detection, parallel line analysis; 120 mg/mL formulation, 3 months at 5 C.
Assay [11] has the same target. Kind of assay: potency ELISA, plate coated with G-CSFR, HRP detection, parallel line analysis; 120 mg/mL formulation, 18 months at 5 C.
Assay [12] shares this target. Kind of assay: potency ELISA, plate coated with G-CSFR, HRP detection, parallel line analysis; 120 mg/mL formulation, 9 months at 25 C.
Assay [13] has the same target. Put plainly: potency ELISA, plate coated with G-CSFR, HRP detection, parallel line analysis; 120 mg/mL formulation, 18 months at 25 C.

Turning to CSL324 (antibody), the potency relative to reference standard in assay [1] turned out to be 96%; in assay [2], 108%; in assay [3], 108%; in [4] it was 109%; in [5] it was 109%; in assay [6] it was 107%. Further, the potency relative to reference standard was 108% in [7]; 103% in assay [8]; 108% in assay [9]; 116% in assay [10]; 100% in [11]; 99% in assay [12]. The substance further yielded a potency relative to reference standard in [13] of 96%.

The values are drawn from patent US20240002517A1.
